A word on the Kd: it is the equilibrium constant for the complex coming apart. Low values mean a tighter complex, high ones a looser complex.

In paper PMC4497409 (2015) one finds Kd data, which are given here for 1 molecule.

The target of the assay is Biotinylated human Norrin K58N (disease-associated mutation) (human, UniProt Q00604 25-133, K58N, biotin on the C-terminal BirA recognition sequence (in vivo biotinylation)). Briefly: SPR. For orientation: SPR reads the build-up and loss of mass on a sensor chip optically.
Chain of Biotinylated human Norrin K58N (disease-associated mutation) (Q00604 25-133 K58N): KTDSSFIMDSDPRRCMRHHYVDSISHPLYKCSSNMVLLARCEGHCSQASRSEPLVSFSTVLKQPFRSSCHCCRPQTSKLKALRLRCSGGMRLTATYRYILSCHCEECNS

B1: Frizzled4 cysteine-rich domain (Fz4CRD), human (domain or fragment)
chain: ERRCDPIRISMCQNLGYNVTKMPNLVGHELQTDAELQLTTFTPLIQYGCSSQLQFFLCSVYVPMCTEKINIPIGPCGGMCLSVKRRCEPVLKEFGFAWPESLNCSKFPPQNDHNHMCMEGPGDEEVPLPHKTPIQPGE
modifications: N-linked glycans at Asn59 and Asn144 (full, or cut to N-acetylglucosamine by Endo-F1)
Consider B1, for which the Kd stood at 1.24 µM.
